Experimental data reported in publication PMC10952462, “Commentary on “The road to reliable peptide assays is paved with good guidelines”” (Clinical Endocrinology, 2023).

Columns and labels:
[1] = Stability of PYY1-36 and PYY3-36 in EDTA and lithium heparin plasma (LC-MS/MS assay validation); assay type: in vitro ADME, human; settings: for degradation in plasma at 4°C / degradation in plasma at room temperature / mean percentage difference in concentration, overall and between all tested sample sets: EDTA or LH plasma; for degradation in plasma at 4°C: 3 h time-point at 4°C; for degradation in plasma at 4°C / degradation in plasma at room temperature: with or without inhibitors (DPP4 inhibitor and Aprotinin), spiked samples and healthy volunteer samples, triplicate QCs (low and high); for degradation in plasma at room temperature: 3 h time-point at room temperature (19°C); for mean percentage difference in concentration, overall and between all tested sample sets: presence versus absence of inhibitors, 3 h at 19°C or 4°C, mean of injections of triplicate QCs (low and high); for differences in concentrations with only DPP4 inhibitor and Aprotinin present: spiked into plasma EDTA and LH from three different volunteers, inhibitor mix of DPP4 inhibitor and Aprotinin
Experimental: We have verified stability of PYY1 –36 and PYY3 –36 at preanalytical, analytical and post‐analytical stages of the assay. At preanalytical stage the whole blood is collected in prechilled lithium heparin (LH) or ethylenediaminetetraacetic acid (EDTA) tubes and containing evaluated in‐house inhibitors (DPP4 inhibitor and Aprotinin). The sample is centrifuged immediately at 4°C and flash‐frozen on dry ice or transferred immediately to a −80°C freezer. The samples are kept at −80°C until being thawed once only for analysis.
We deemed our protease inhibitors sufficient for maintaining stability of PYY1 –36 and PYY3 –36 and inhibiting peptide degradation.
(§1) Maurer et al. have quoted Toräng et al.'s study on PYY's major cleaving sites but disregarded the outcome from their study of the inhibitory effects of EDTA on metalloendoproteases, neuroendopeptidase (NEP) and Meprin β.[3] […] We have studied the stability of both PYY species with our inhibitor mix containing DPP4 inhibitor and Aprotinin, where we spiked PYY1 –36 and PYY3 –36 into plasma EDTA and LH from three different volunteers.
Furthermore, we have verified the stability of both species of PYY in both EDTA and LH plasma under the following conditions: (1) freezing and thawing up to a second cycle; (2) incubation at 4°C for up to 4 h; (3) long‐term storage (6 months) at −80°C; (4) postextraction, during storage in the autosampler at 4°C. We have verified the stability of our stock and working stock solutions for up to 7 months, stored at […]. We would state that it is a matter of standard operating procedure that we store these solutions at −80°C and discard these at the end of the day of the run after thawing, affording a safety margin. Last, our assay has been validated both with plasma‐based calibrants and QCs, and cross‐validated in a surrogate matrix (20BMA). We also validated matrix effects (ME) in spiked plasma EDTA and plasma LH. Mean percentage ME for PYY1 –36 was 100.7% and for PYY3 –36, 111% in plasma LH. EDTA ME results were reported previously.[2]

[2] = collection tubes containing EDTA; ref 3 (Toräng et al.); cited from earlier work
Excerpt: as §1

Substance | degradation in plasma at 4°C [1] | degradation in plasma at room temperature [1] | mean percentage difference in concentration, overall and between all tested sample sets [1] [%] | differences in concentrations with only DPP4 inhibitor and Aprotinin present [1] | risk of PYY degradation in collected blood [2]
peptide YY1 –36 [PYY1 –36] | no degradation | no degradation | ≤ 10 | did not detect any significant differences | –
PYY: peptide YY, species not specified, as studied by Toräng et al. | – | – | – | – | small
peptide YY3‐36 [PYY3 –36] | no degradation | no degradation | ≤ 10 | did not detect any significant differences | –
